The test concerns the target eukaryotic elongation factor-1 A1 (eEF1A1), purified (UniProt P68104).

The record followed here is article PMC3061437.

Sequence of UniProt P68104 (P68104 whole entry): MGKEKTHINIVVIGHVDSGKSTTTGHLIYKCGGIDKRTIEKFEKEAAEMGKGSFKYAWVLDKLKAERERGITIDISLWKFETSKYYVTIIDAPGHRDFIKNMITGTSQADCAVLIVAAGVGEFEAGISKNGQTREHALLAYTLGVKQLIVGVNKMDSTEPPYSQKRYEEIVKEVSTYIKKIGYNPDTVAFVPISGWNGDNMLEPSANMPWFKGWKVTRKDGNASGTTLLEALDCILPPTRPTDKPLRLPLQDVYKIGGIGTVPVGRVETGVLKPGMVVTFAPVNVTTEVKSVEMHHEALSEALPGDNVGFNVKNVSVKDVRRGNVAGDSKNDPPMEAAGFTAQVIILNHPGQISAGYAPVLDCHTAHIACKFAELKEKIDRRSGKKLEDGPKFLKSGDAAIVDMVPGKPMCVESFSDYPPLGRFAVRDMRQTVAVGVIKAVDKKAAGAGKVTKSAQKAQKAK

“recombinant full-length (FL) hnRNP E1 expressed as a GST-fusion product (from UniProt Q15365 1-356) (natural protein)” came in with a repression of translation of Luc-BAT in an IVT assay greater than 80%.

Take “hnRNP E1 KH1 domain expressed as GST-fusion product (domain or fragment)”: the repression of translation of Luc-BAT in an IVT assay was determined as 70%.
